Assays:
[1] = target: T1, TRBC2 protein (recombinant) (Homo sapiens, UniProt A0A5B9); experiment: SPR; Biacore T200, 25 °C; antibodies captured on protein A/G immobilised on CM5 chips; TRBC1 or TRBC2 protein as analyte, threefold dilutions from 1,000 nM to 4.1 nM, multiple-cycle kinetics; PBS-P (20 mM phosphate pH 7.4, 137 mM NaCl, 2.7 mM KCl, 0.05% P20); 1:1 kinetics binding model; conditions: both partners purified
T1 construct: T cell receptor beta constant 2 (TRBC2), recombinant protein bought from Acro Biosystems; The discussion calls it 'TRBC2 peptide'; see the vendor's data sheet for the catalogue number; also called recombinant TRBC2 protein; TRBC2 peptide; source: bought: Acro Biosystems, cat. no; TR2-H52H3

[2] = target: T2, TRBC1 protein (recombinant) (Homo sapiens, UniProt P01850); experiment: as above; conditions: both partners purified
T2 construct: T cell receptor beta constant 1 (TRBC1), recombinant protein bought from Acro Biosystems; The discussion calls it 'TRBC1 peptide'; see the vendor's data sheet for the catalogue number; also called recombinant TRBC1 protein; TRBC1 peptide; source: bought: Acro Biosystems, cat. no; TR1-H52H4

[3] = target: T3, TRBC1^+ TCR on T cells (Homo sapiens, UniProt P01850); experiment: flow cytometry on cells; T cell cancer cell lines stained with anti-TRBC2 antibodies with a mouse IgG2a Fc, then anti-mouse IgG-Alexa Fluor-647; conditions: one partner purified
T3 construct: variable part (TRBV-TRBD-TRBJ) of the beta chain, different in each cell line or T cell; T cell receptor beta constant 1 (TRBC1) as part of the alpha-beta TCR on the cell surface; On cells the beta chain stands in the whole TCR-CD3 complex; also called TRBC1^+ cells; source: endogenous on wild-type Jurkat and H9 cells; normal human T cells from PBMCs

B1: YR3-A5 anti-TRBC2 antibody (antibody, V domains shown)
VH: QVQLVQSGAEVKKPGASVKVSCKASPRGFHGYHMHWVRQAPGQGLEWMGFINPYNDDIQSNERFRGRVTMTSDKSTTTAYMELSSLRSEDTAVYYCARGNGKWGDGAYRFFDFWGQGTLVTVSS
VL: DVVMTQSPLSLPVTPGEPASISCRSSQNLVHSNGRTYLQWYLQKPGQSPQLLIYRVSNRFPGVPDRFSGSGSGTDFTLKISRVEAEDVGVYFCSQSTHVPYTFGGGTKVEIK
notes: also called parent; source: transient transfection of CHO cells (ExpiCHO or CHO-S), purified (HisTrap column or Protein A magnetic beads; SEC); copies: 2 + 2
Kd [1]: 23 nM | binding result [2]: no binding

B2: JX1.1 anti-TRBC2 antibody (antibody, V domains shown)
VH: QVQLVQSGAEVKKPGASVKVSCKASPYGFHGYHMHWVRQAPGQGLEWMGFINPYNDDIQSNERFRGRVTMTSDKSTTTAYMELSSLRSEDTAVYYCARGNGKWGDGAYRFFDFWGQGTLVTVSS
VL: DVVMTQSPLSLPVTPGEPASISCRSSQNLKHRNGRTYLQWYLQKPGQSPQLLIYRVSNRFPGVPDRFSGSGSGTDFTLKISRVEAEDVGVYFCSQSTHVPYTFGGGTKVEIK
notes: human VH; murine IgG2a Fc region; human VL; Human variable light and heavy chains fused to a murine IgG2a Fc region; also called clone V30K, S32R, R27Y; source: ExpiCHO or CHO-S cells, purified (HisTrap column or Protein A magnetic beads; SEC); copies: 2 + 2
binding result [3]: no binding | Kd [1]: 10 nM | koff [1]: 0.0013 s⁻¹ | binding result [2]: no binding

— article PMC13070007, “TRBC2-targeting antibody–drug conjugates for the treatment of T cell cancers” (Nature cancer, 2025)
